Literature values, collected in paper PMC8821138 (Food chemistry, 2021).

Details: ref Parisi et al., 2020; Yagami et al., 2000

Substance: NaD1: defensin, literature example of digestion resistance (RECKTESNTFPGICITKPPCRKACISEKFTDGHCSKILRRCLCTKPC; UniProt Q8GTM0 26-72, looked up)
- Resistance in in vitro gastrointestinal digestions: demonstrated resistance
